Experiments:
[1] = biological target: T1, mouse FcγRII extracellular domain, C-terminal His tag (mouse, UniProt P08101 30-210); experiment: SPR (Biacore T200); KD of H237-mIgG1/MRAL-k0 / KD of variant
T1 construct: Whole entry named; also called mFcγRII; mFcgRII
T1 sequence: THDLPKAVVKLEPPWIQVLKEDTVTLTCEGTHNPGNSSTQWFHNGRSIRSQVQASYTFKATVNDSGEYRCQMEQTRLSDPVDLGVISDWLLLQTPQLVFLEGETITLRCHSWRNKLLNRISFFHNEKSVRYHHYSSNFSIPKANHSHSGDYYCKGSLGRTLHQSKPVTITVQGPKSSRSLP
From the text: (§1) The antibody H chain variable region used was the variable region H237 (SEQ ID NO: 1) of the H chain VH3-IgG1 of the anti-IL-6 receptor antibody Fv4-IgG1 described in WO2009/125825. The antibody L chain commonly used was the L chain MRAL-k0 (SEQ ID NO: 2) of the anti-IL-6 receptor antibody tocilizumab. The aforementioned 7 variants were used as templates to substitute the amino acids at the alteration sites by the amino acids before the alteration. These variants were expressed and purified by the method of Reference Example 1 and evaluated for their binding to mFcγRII and mFcγRIII by the method of Reference Example 2 using Biacore T200.
(§2) Each altered antibody was analyzed for its interaction with each Fcγ receptor prepared above using Biacore T100 (GE Healthcare Japan Corp.), Biacore T200 (GE Healthcare Japan Corp.), Biacore A100, or Biacore 4000. The running buffer used was HBS-EP+ (GE Healthcare Japan Corp.). The assay temperature was set to 25° C. The sensor chips used were chips prepared by immobilizing Protein L (ACTIGEN or BioVision) onto Series S Sensor Chip CM5 (GE Healthcare Japan Corp.) or Series S Sensor Chip CM4 (GE Healthcare Japan Corp.) by the amine coupling method.

[2] = biological target: T2, mouse FcγRIII extracellular domain, C-terminal His tag (mouse, UniProt P08508 31-215); experiment: SPR (Biacore T200)
T2 construct: Whole entry named; also called mFcγRIII; mFcgRIII
T2 chain: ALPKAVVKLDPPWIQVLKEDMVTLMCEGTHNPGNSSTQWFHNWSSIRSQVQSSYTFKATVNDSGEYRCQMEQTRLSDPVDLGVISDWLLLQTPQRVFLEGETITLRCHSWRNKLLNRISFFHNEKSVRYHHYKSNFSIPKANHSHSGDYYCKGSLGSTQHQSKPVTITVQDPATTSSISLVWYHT
From the text: as §1, §2

mouse FcγRIII [3] = biological target: T3, mouse FcγRIII (mouse, UniProt P08508 31-215); experiment: SPR Biacore T200
T3 construct: also called mFcγRIII; mFcgRIII
T3 chain: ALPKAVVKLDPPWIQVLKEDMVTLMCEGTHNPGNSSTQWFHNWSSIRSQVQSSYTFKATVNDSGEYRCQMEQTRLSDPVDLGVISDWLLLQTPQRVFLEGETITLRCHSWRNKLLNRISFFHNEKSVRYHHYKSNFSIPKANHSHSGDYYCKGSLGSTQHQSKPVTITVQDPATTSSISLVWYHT
From the text: as §1, with “aforementioned 11” for “aforementioned 7”, “to introduce” for “to substitute the amino acids at the alteration sites by the amino acids before”
Each altered antibody was analyzed for its interaction with each Fcγ receptor prepared above using Biacore T100 (GE Healthcare Japan Corp.), Biacore T200 (GE Healthcare Japan Corp.), Biacore A100, or Biacore 4000. The running buffer used was HBS-EP+ (GE Healthcare Japan Corp.). The assay temperature was set to 25° C. […]
In order to calculate the KD value of each altered antibody for FcγR, kinetic analysis was conducted according to the following method: first, the antibody of interest was captured onto any of these chips and allowed to interact with mFcγR diluted with a running buffer. […] From these values, the dissociation constant KD (mol/L) was calculated.

[4] = biological target: T4, mouse FcγRIII extracellular domain, C-terminally His-tagged (mouse, UniProt P08508 31-215); experiment: SPR Biacore T200, KD ratio
T4 construct: the whole entry is named; also called mFcγRIII; mFcgRIII
T4 chain: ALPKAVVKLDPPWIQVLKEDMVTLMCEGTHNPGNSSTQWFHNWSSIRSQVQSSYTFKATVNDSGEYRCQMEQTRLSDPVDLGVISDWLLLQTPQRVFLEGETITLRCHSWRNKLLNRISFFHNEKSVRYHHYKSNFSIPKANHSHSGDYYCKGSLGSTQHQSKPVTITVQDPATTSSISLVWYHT
Procedure: (§3) As for alterations, “X000Z” represents the substitution of amino acid X at EU numbering position 000 by amino acid Z. In this context, X and Z represent the one-letter codes of the amino acid residues.
as §2
(§4) In order to calculate the KD value of each altered antibody for FcγR, kinetic analysis was conducted according to the following method: first, the antibody of interest was captured onto any of these chips and allowed to interact with mFcγR diluted with a running buffer. For the obtained sensorgram, the assay results were globally fit into the 1:1 Langmuir binding model using Biacore Evaluation Software to calculate an association rate constant ka (L/mol/s) and a dissociation rate constant kd (1/s). From these values, the dissociation constant KD (mol/L) was calculated.

[5] = biological target: T5, mouse FcγRII extracellular domain, C-terminally His-tagged (mouse, UniProt P08101 30-210); experiment: SPR Biacore T200, KD ratio
T5 construct: the whole entry is named; also called mFcγRII; mFcgRII
T5 sequence: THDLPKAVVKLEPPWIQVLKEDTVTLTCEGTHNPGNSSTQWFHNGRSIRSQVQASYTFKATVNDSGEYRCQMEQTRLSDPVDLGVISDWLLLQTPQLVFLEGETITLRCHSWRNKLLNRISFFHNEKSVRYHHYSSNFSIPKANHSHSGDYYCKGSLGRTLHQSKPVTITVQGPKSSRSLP
Procedure: as §3, §2, §4

[6] = biological target: T4, mouse FcγRIII extracellular domain, …; experiment: SPR Biacore T200, antibody captured on Protein L
Procedure: as §3, §2, §4

[7] = biological target: T5, mouse FcγRII extracellular domain, …; experiment: SPR Biacore T200, antibody captured on Protein L
Procedure: as §3, §2, §4

mouse FcγRII = biological target: T6, mouse FcγRII (mouse, UniProt P08101 30-210); experiment: told of the L104-mk1 form; SPR was run on the MRAL-k0 form
T6 construct: also called mFcγRII; mFcgRII
T6 sequence: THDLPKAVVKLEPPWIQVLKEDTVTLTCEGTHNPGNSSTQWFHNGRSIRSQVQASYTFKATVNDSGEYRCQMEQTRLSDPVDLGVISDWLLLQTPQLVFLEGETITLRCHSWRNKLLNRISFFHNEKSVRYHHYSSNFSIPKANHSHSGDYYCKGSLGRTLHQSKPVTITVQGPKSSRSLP

mouse FcγRIII [8] = biological target: T3, mouse FcγRIII; experiment: as above

B1: H237-MB697/MRAL-k0 (antibody, mouse IgG1, kappa)
heavy: QVQLQESGPGLVKPSETLSLTCAVSGHSISHDHAWSWVRQPPGEGLEWIGFISYSGITNYNPSLQGRVTISRDNSKNTLYLQMNSLRAEDTAVYYCARSLARTTAMDYWGEGTLVTVSSAKTTPPSVYPLAPGSAAQTNSMVTLGCLVKGYFPEPVTVTWNSGSLSSGVHTFPAVLQSDLYTLSSSVTVPSSTWPSETVTCNVAHPASSTKVDKKIVPRDCGCKPCICEPPEVEFVFIFPPKPKDVLTITLTPKVTCVVVDISKDDPEVQFSWFVDDVEVHTAQTQPREEQFNSTFRSVSELPIMHQDWLNGKEFKCRVNSAAFPAPIEKTISKTKGRPKAPQVYTIPPPKEQMAKDKVSLTCMITDFFPEDITVEWQWNGQPAENYKNTQPIMDTDGSYFVYSKLNVQKSNWEAGNTFTCSVLHEGLHNHHTEKSLSHSPGK
light: not shown
notes: copies: 2 + 2
relative mFcγRII-binding activity (mIgG1 = 1) [1]: 0.217 fold
binding result [2]: no binding

B2: H237-MB701/MRAL-k0 (antibody, mouse IgG1, kappa)
heavy: QVQLQESGPGLVKPSETLSLTCAVSGHSISHDHAWSWVRQPPGEGLEWIGFISYSGITNYNPSLQGRVTISRDNSKNTLYLQMNSLRAEDTAVYYCARSLARTTAMDYWGEGTLVTVSSAKTTPPSVYPLAPGSAAQTNSMVTLGCLVKGYFPEPVTVTWNSGSLSSGVHTFPAVLQSDLYTLSSSVTVPSSTWPSETVTCNVAHPASSTKVDKKIVPRDCGCKPCICEVPEEEFVFIFPPKPKDVLTITLTPKVTCVVVDISKDDPEVQFSWFVDDVEVHTAQTQPREEQFNSTFRSVSELPIMHQDWLNGKEFKCRVNSAAFPAPIEKTISKTKGRPKAPQVYTIPPPKEQMAKDKVSLTCMITDFFPEDITVEWQWNGQPAENYKNTQPIMDTDGSYFVYSKLNVQKSNWEAGNTFTCSVLHEGLHNHHTEKSLSHSPGK
light: not shown
notes: copies: 2 + 2
binding result (mouse FcγRIII [3]): no binding

B3: H237-mF46/MRAL-k0 (antibody, mouse IgG1, kappa)
heavy: QVQLQESGPGLVKPSETLSLTCAVSGHSISHDHAWSWVRQPPGEGLEWIGFISYSGITNYNPSLQGRVTISRDNSKNTLYLQMNSLRAEDTAVYYCARSLARTTAMDYWGEGTLVTVSSAKTTPPSVYPLAPGSAAQTNSMVTLGCLVKGYFPEPVTVTWNSGSLSSGVHTFPAVLQSDLYTLSSSVTVPSSTWPSETVTCNVAHPASSTKVDKKIVPRDCGCKPCICTVPEVSDVFIFPPKPKDVLTITLTPKVTCVVVDISKDDPEVQFSWFVDDVEVHTAQTQPREEQFNSTFRSVSELPIMHQDWLNGKEFKCRVNSADFPAPIEKTISKTKGRPKAPQVYTIPPPKEQMAKDKVSLTCMITDFFPEDITVEWQWNGQPAENYKNTQPIMDTDGSYFVYSKLNVQKSNWEAGNTFTCSVLHEGLHNHHTEKSLSHSPGK
light: not shown
notes: S239D/A327D (EU) against H237-mIgG1; copies: 2 + 2
relative mFcγRIII-binding activity (mIgG1 = 1) [4]: 44 fold
relative mFcγRII-binding activity (mIgG1 = 1) [5]: 158 fold
Kd [6]: 6.4 nM
Kd [7]: 1.33 nM

B4: H237-mF46/L104-mk1 (antibody, mouse IgG1, kappa)
heavy: QVQLQESGPGLVKPSETLSLTCAVSGHSISHDHAWSWVRQPPGEGLEWIGFISYSGITNYNPSLQGRVTISRDNSKNTLYLQMNSLRAEDTAVYYCARSLARTTAMDYWGEGTLVTVSSAKTTPPSVYPLAPGSAAQTNSMVTLGCLVKGYFPEPVTVTWNSGSLSSGVHTFPAVLQSDLYTLSSSVTVPSSTWPSETVTCNVAHPASSTKVDKKIVPRDCGCKPCICTVPEVSDVFIFPPKPKDVLTITLTPKVTCVVVDISKDDPEVQFSWFVDDVEVHTAQTQPREEQFNSTFRSVSELPIMHQDWLNGKEFKCRVNSADFPAPIEKTISKTKGRPKAPQVYTIPPPKEQMAKDKVSLTCMITDFFPEDITVEWQWNGQPAENYKNTQPIMDTDGSYFVYSKLNVQKSNWEAGNTFTCSVLHEGLHNHHTEKSLSHSPGK
light: DIQMTQSPSSLSASVGDSVTITCQASTDISSHLNWYQQKPGKAPELLIYYGSHLLSGVPSRFSGSGSGTDFTFTISSLEAEDAATYYCGQGNRLPYTFGQGTKVEIERADAAPTVSIFPPSSEQLTSGGASVVCFLNNFYPKDINVKWKIDGSERQNGVLNSWTDQDSKDSTYSMSSTLTLTKDEYERHNSYTCEATHKTSTSPIVKSFNRNEC
notes: the text speaks of it for this form; copies: 2 + 2
binding result (mouse FcγRII): binds
binding result (mouse FcγRIII [8]): binds
